Reference: publication PMC12650144, “Interactive Role of the DHPR β1a SH3 Domain in Skeletal Muscle Excitation–Contraction Coupling” (Biomolecules, 2025)

Legend:
[1] = target: T1, DHPR β1a subunit, full length (mouse, UniProt Q8R3Z5-4 1-524); assay: other fluorescence titration; tryptophan fluorescence quenching: intrinsic fluorescence of the β subunit or β1a-SH3 domain in the cuvette (sub-micromolar; 50 nM β1a-FL for the AID titration) monitored while titrating the II-III loop or peptides; excitation 280 nm, emission 340 nm; corrected for dilution and intrinsic fluorescence of the titrant; nonlinear regression; settings: both partners purified
T1 construct: mouse voltage-gated calcium channel (DHPR) β1a subunit, NCBI NM_031173, full length; also called β1a-FL; full-length β1a; source: E. coli BL21, purified (Ni-agarose, ubiquitin removed, preparative electrophoresis); not shown: polyhistidine-tagged ubiquitin, N-terminal, cleaved

[2] = target: T2, DHPR β1a SH3 domain (β1a residues V101-P272) (mouse, UniProt Q8R3Z5-4 101-272); assay: as above; settings: both partners purified
T2 construct: mouse DHPR β1a subunit, NCBI NM_031173, residues V101-P272 (split SH3 domain with the hook region); also called β1a–SH3 Domain (Residues 101–272); β1a SH3 protein; not shown: polyhistidine-tagged ubiquitin, N-terminal, cleaved
T2 sequence (Q8R3Z5 other isoform, or with tags, fused parts or gaps): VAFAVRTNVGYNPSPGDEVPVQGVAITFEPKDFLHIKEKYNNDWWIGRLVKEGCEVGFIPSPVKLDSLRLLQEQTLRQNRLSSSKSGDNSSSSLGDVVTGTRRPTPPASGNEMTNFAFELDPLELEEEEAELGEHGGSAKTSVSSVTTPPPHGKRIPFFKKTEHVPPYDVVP

T1 sequence (Q8R3Z5 other isoform, or with tags, fused parts or gaps): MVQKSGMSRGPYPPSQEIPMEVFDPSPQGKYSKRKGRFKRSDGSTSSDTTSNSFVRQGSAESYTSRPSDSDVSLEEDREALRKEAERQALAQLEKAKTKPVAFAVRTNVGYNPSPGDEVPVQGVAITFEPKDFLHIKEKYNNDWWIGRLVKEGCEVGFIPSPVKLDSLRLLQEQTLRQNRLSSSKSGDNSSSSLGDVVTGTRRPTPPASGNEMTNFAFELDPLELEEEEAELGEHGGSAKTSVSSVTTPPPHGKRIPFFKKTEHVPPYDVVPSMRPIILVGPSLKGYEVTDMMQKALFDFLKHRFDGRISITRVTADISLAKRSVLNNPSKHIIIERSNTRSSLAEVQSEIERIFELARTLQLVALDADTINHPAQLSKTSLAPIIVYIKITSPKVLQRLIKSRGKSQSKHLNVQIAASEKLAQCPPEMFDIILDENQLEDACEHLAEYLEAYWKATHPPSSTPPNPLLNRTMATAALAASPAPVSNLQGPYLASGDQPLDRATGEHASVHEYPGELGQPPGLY

| Kd [1] [µM] | Kd [2] [nM] | Binder |
| --- | --- | --- |
| 2.5 ± 0.4 | 2600 ± 200 | DHPR α1s II-III loop (domain or fragment, UniProt P07293 666-791, looked up, DHPR α1s subunit (CaV1.1), cytoplasmic II-III loop, residues E666-L791 of NCBI X05921 (methods); the results say residues 666-790 of NP_001095190; Methods: E666-L791; results: 666-790; also called α1s DHPR II-III Loop; DHPR II-III loop; source: E. coli BL21, purified (Ni-agarose, ubiquitin removed, preparative electrophoresis); not shown: polyhistidine-tagged ubiquitin, N-terminal, cleaved) EAESLTSAQKAKAEERKRRKMSRGLPDKTEEEKSVMAKKLEQKPKGEGIPTTAKLKVDEFESNVNEVKDPYPSADFPGDDEEDEPEIPVSPRPRPLAELQLKEKAVPIPEASSFFIFSPTNKVRVL |
| 4.9 ± 0.6 | 3600 ± 600 | LKVDEFESNVNEVKDPYPSADFPGDDEEDEPEIPVSPRPRPLAELQ (peptide, UniProt P07293 720-765, looked up, DHPR α1s subunit, II-III loop C region, residues 720-765 of NP_001095190.1 (skeletal); also called α1s C; skeletal II-III loop C region; source: synthetic peptide) [α1s II–III loop C region peptide (residues 720–765)] |
| 3.5 ± 0.4 | 2500 ± 200 | INMDDLQPNESEDKSPYPNPETTGEEDEEEPEMPVGPRPRPLSEL (peptide, UniProt P15381-1 851-895, looked up, DHPR α1c subunit (cardiac, CaV1.2), II-III loop C region, residues 851-895 of NP_001129994.1 (cardiac); also called α1c C; cardiac II-III loop C region; source: synthetic peptide) [α1c II–III loop C region peptide (residues 851–895)] |
